Measurements reported in patent US20190330277A1.
Several values for one entry are separate records, joined by “and”; a condition that tells them apart may be missing. Equal entries are not always repeated.

Experiments:
[1] = biological target: bRSV RB94 DSCav1 (bovine respiratory syncytial virus, strain RB94) (UniProt P23728)
[2] = biological target: 391-2-DS-Cav1-BZGJ9 Long K226L; assay: ELISA, variant from culture supernatant on Ni-NTA plate
[3] = biological target: 391-2-DS-Cav1-BZGJ9_gyc5; assay: as above
[4] = biological target: 391-2-DS-Cav1-sc9 100C-362C; assay: as above
[5] = biological target: 391-2-DS-Cav1-sc9 99C-362C; assay: as above
[6] = biological target: 391-2-DS-Cav1-sc9deleteFS 100C-362C; assay: as above
[7] = biological target: 391-2-DS-Cav1-sc9deleteFS 98C-361C; assay: as above
[8] = biological target: 391-2-DS-Cav1-sc9deleteFS 99C-362C; assay: as above
[9] = biological target: 391-2-DS-Cav1_ I28C-G464C; assay: as above
[10] = biological target: 391-2-DS-Cav1_ sc9_I395C-A490C; assay: as above
[11] = biological target: 391-2_DS-Cav1-tzsc3; assay: as above
[12] = biological target: 391-2_DS-Cav1-tzsc5; assay: as above
[13] = biological target: 391-2_DS-Cav1-tzsc7; assay: as above
[14] = biological target: RB94 DS-Cav1 Long FdPL; assay: as above
[15] = biological target: RB94 hu/bov DS-CAV1 A149C-Y458C Long; assay: as above
[16] = biological target: RB94 hu/bov DS-Cav1 Long FdPL; assay: as above
[17] = biological target: RB94 sc9 DS-CAV1 A149C-Y458C L373R Long S190V; assay: as above
[18] = biological target: RB94 sc9 DS-CAV1 N183GC-N428C L373R Long K226L; assay: as above
[19] = biological target: RB94 sc9 DS-CAV1 N183GC-N428C L373R Long S190V; assay: as above
[20] = biological target: RB94 site 0 hRSV DS-Cav1-BZGJ9 Long FdPL; assay: as above
[21] = biological target: sc9-10_DS-CAV1_bRSV(RB94)_Fd_fp2_ig1; assay: as above
[22] = biological target: sc9-10_DS-CAV1_bRSV(RB94)_Fd_pm1_fp1_ig1; assay: as above
[23] = biological target: sc9-10_DS-CAV1_bRSV(RB94)_Fd_pm1_ig1; assay: as above
[24] = biological target: 391-2-DS-Cav1- F-SC_11R; assay: ELISA, variant from culture supernatant on Ni-NTA plate [continued]
[25] = biological target: 391-2-DS-Cav1-BZGJ9_gyc10; assay: as above
[26] = biological target: 391-2-DS-Cav1-BZGJ9_gyc2; assay: as above
[27] = biological target: 391-2-DS-Cav1-BZGJ9_gyc3; assay: as above
[28] = biological target: 391-2-DS-Cav1-BZGJ9_gyc4; assay: as above
[29] = biological target: 391-2-DS-Cav1-BZGJ9_gyc6; assay: as above
[30] = biological target: 391-2-DS-Cav1-IP-2; assay: as above
[31] = biological target: 391-2-DS-Cav1-IP-7; assay: as above
[32] = biological target: 391-2_DS-Cav1-tzsc2; assay: as above
[33] = biological target: 391-2_DS-Cav1-tzsc4; assay: as above
[34] = biological target: 391-2_DS-Cav1-tzsc6; assay: as above
[35] = biological target: 391-2_DS-Cav1-tzsc9; assay: as above
[36] = biological target: RB94 DS-CAV1 N70K S104F K117T; assay: as above
[37] = biological target: RB94_sc9-10 DS-CAV1 L373R; assay: as above
[38] = biological target: sc9-10_DS-CAV1_bRSV(RB94)_Fd_(hRSV-leader)_ig1; assay: as above
[39] = biological target: sc9-10_DS-CAV1_bRSV(RB94)_Fd_fp1_ig1; assay: as above

With motavizumab (antibody) the ELISA binding value [1] was 0.371, the ELISA binding value [2] was 1.94 and the ELISA binding value [3] was 2.04. For the same substance, the ELISA binding value [4] was 0.603, the ELISA binding value [5] was 0.393 and the ELISA binding value [6] was 0.503. For the same substance, the ELISA binding value [7] was 0.899, the ELISA binding value [8] was 0.612 and the ELISA binding value [9] was 1.21. For the same substance, the ELISA binding value [10] was 0.891, the ELISA binding value [11] was 0.785 and the ELISA binding value [12] was 1.57. It also gave an ELISA binding value [13] of 1.99, an ELISA binding value [14] of 0.841 and an ELISA binding value [15] of 0.79. The ELISA binding value [16] was 1.44, the ELISA binding value [17] was 0.537 and the ELISA binding value [18] was 0.633. It also gave an ELISA binding value [19] of 0.617, an ELISA binding value [20] of 2.26 and an ELISA binding value [21] of 0.748. For the same substance, the ELISA binding value [22] was 1.81, the ELISA binding value [23] was 2.22 and the ELISA binding value [24] was 0.538. For the same substance, the ELISA binding value [25] was 0.461, the ELISA binding value [26] was 1.58 and the ELISA binding value [27] was 0.599. It also gave an ELISA binding value [28] of 0.486, an ELISA binding value [29] of 1.05 and an ELISA binding value [30] of 0.556. For the same substance, the ELISA binding value [31] was 0.546, the ELISA binding value [32] was 0.366 and the ELISA binding value [33] was 0.639 and 0.505. It also gave an ELISA binding value [34] of 0.527, an ELISA binding value [35] of 1.59 and an ELISA binding value [36] of 0.271. It also gave an ELISA binding value [37] of 0.689, an ELISA binding value [38] of 0.538 and an ELISA binding value [39] of 0.545.
